Data taken from PMC3989047, “Purification and characterization of tyrosinase from walnut leaves (Juglans regia)” (Phytochemistry, 2014).

Assays:
purified protein [1] = substrate: N[C@@H](Cc1ccc(O)cc1)C(=O)O; assay: purified protein; type: biochemical, Juglans regia; conditions: 50 mM sodium phosphate pH 6.5, five substrate concentrations 0.29-1.96 mM
purified protein [2] = substrate: N[C@@H](Cc1ccc(O)c(O)c1)C(=O)O; assay: purified protein; type: biochemical, Juglans regia; conditions: 50 mM sodium phosphate pH 6.5, five substrate concentrations 0.29-1.96 mM

B1: jrPPO1(Asp101 → Arg445), Juglans regia tyrosinase (form 2) (Juglans regia) (protein)
chain: DPVSAPELTLCSEADLPAGALPVNCCPPTSKKIKDFVLPSQNTPLRVRPAAHLVDNDYIAKYNKGIELMKSLPADDPRSFTQQANVHCAYCDGAYTQVGFPDLSLQVHECWLFFPFHRYYVYFFEKILGKLIGDPTFALPFWNWDSPPGMQLPSLYAVSNSAIYDPLRNANHQPPTIIDLDYGETSESTTTTDQVPSNLKIMYRQMVSGAKNPTLFFGSPYRAGDEPDPGAGTIESTPHNNIHLWTGDDTQPNIENMGNFYSAGRDPIFFAHHSNVDRMWTIWKTLGGKRKDITDPDWLNSSFFFYDENADPVRVKVKDCVDNTKLRYVYQDVEIPWLKTKPTPR
notes: native, purified from walnut leaves; 39,047 Da
Km (purified protein [1]): 1.9 mM | Vmax (purified protein [1]): 80 µM/min | Vmax/Km (purified protein [1]): 0.04 min⁻¹ | kcat (purified protein [1]): 20.8 s⁻¹ | kcat/Km (purified protein [1]): 10900 M⁻¹ s⁻¹ | Km (purified protein [2]): 8.8 mM | Vmax (purified protein [2]): 60 µM/min | Vmax/Km (purified protein [2]): 0.01 min⁻¹ | kcat (purified protein [2]): 199 s⁻¹ | kcat/Km (purified protein [2]): 22800 M⁻¹ s⁻¹
